Columns and labels:
Assay in all cases: purified protein
Conditions in all cases: 0.12 mM NADPH, 50 mM potassium phosphate pH 7.4, 10 mM 2-mercaptoethanol, 37°C
[1] = tested on: CC(=O)C=O
[2] = tested on: CCCCOCN(C(=O)CCl)c1c(CC)cccc1CC
[3] = tested on: CCOC(=O)C(C)=O
[4] = tested on: O=C1Nc2ccccc2C1=O
[5] = tested on: O=Cc1ccccc1[N+](=O)[O-]
[6] = tested on: O=Cc1ccccc1

AKR17A1 (All2316) (Nostoc sp. PCC 7120 = FACHB-418)
Km [1]: 4.164 (0.973) mM | kcat [1]: 1.6 s⁻¹ | kcat/Km [1]: 383 M⁻¹ s⁻¹ | Km [2]: 0.548 (0.190) mM | kcat [2]: 2.11 s⁻¹ | kcat/Km [2]: 3840 M⁻¹ s⁻¹ | Km [3]: 6.213 (2.214) mM | kcat [3]: 1.43 s⁻¹ | kcat/Km [3]: 228 M⁻¹ s⁻¹ | Km [4]: 0.011 (0.005) mM | kcat [4]: 1.58 s⁻¹ | kcat/Km [4]: 136000 M⁻¹ s⁻¹ | Km [5]: 0.014 (0.002) mM | kcat [5]: 1.59 s⁻¹ | kcat/Km [5]: 114000 M⁻¹ s⁻¹ | Km [6]: 3.740 (1.098) mM | kcat [6]: 1.51 s⁻¹ | kcat/Km [6]: 404 M⁻¹ s⁻¹

Source: article PMC4570671, “A Novel Aldo-Keto Reductase (AKR17A1) of Anabaena sp. PCC 7120 Degrades the Rice Field Herbicide Butachlor and Confers Tolerance to Abiotic Stresses in E. coli” (PLoS ONE, 2015)
